Molecular target: SlGAMYB2-GST (Solanum lycopersicum, UniProt A0A3Q7H2U6 1-504)
Experiment: EMSA

B1: SlGA3ox2 probe P2 (dsDNA)
DNA 1: CAATTATTTGTCAATATTTGGTTAAATACTTGTTTAATAGTATAC
DNA 2: GTATACTATTAAACAAGTATTTAACCAAATATTGACAAATAATTG
- binding result: binds

B2: SlGA3ox2 probe P3 (dsDNA)
DNA 1: CCCATACAACTTTGCGATGTTAATGGTTATAACTATAAAGGGAGA
DNA 2: TCTCCCTTTATAGTTATAACCATTAACATCGCAAAGTTGTATGGG
- binding result: binds

B3: SlGA3ox2 probe P1 (dsDNA)
DNA 1: GCACTTAAGATCATAATTAATGATTTCAGTTACCGCAATAAAATG
DNA 2: CATTTTATTGCGGTAACTGAAATCATTAATTATGATCTTAAGTGC
- binding result: no binding

B4: SlGA3ox1 probe P5 (dsDNA)
DNA 1: TTAACAAAGACAAATTAGTTGATTGGTTAAAGACAATCAATATGT
DNA 2: ACATATTGATTGTCTTTAACCAATCAACTAATTTGTCTTTGTTAA
- binding result: no binding

B5: SlGA3ox2 probe P4 (dsDNA)
DNA 1: CTATAATTGAATTGAATTCAGTTAACTGTCGAAATTGGAATGGTA
DNA 2: TACCATTCCAATTTCGACAGTTAACTGAATTCAATTCAATTATAG
- binding result: no binding
